Literature values in article PMC3214078.

What was measured:
[1] = target: Histone H3 peptide N-terminal tail (Homo sapiens) (UniProt P68431); assay: ITC
[2] = target: Histone H3 peptide N-terminal tail (Homo sapiens) (UniProt P68431); assay: tryptophan fluorescence

Sequence of UHRF1 PHD (Q96T88 307-369): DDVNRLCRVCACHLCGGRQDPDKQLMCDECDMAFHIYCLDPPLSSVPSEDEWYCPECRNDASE

- Kd [1]: 0.93 µM
- Kd [2]: 3.8 µM
Substance: UHRF1 PHD (from UniProt Q96T88)
